From article PMC8526979, “The predicted stem-loop structure in the 3′-end of the human norovirus antigenomic sequence is required for its genomic RNA synthesis by its RdRp” (The Journal of Biological Chemistry, 2021) come the findings set out here.

The IC50 is the concentration at which inhibition is half-maximal. Read a high IC50 as lower potency.

Series [1] deals with His-RdRp (NS7, RNA-dependent RNA polymerase) (Human norovirus GII.P3_GII.3 U201 strain). The series can be described thus: competition. The settings on record: 50 mM Tris-HCl pH 7.4, 1.7% glycerol, 5 mM beta-mercaptoethanol, 0.5 ug/ul yeast RNA, 30 C 10 min, 20 ul; native PAGE at 4 C.
For series [2], the target named is T1, HuNV RdRp (His-RdRp; GII.P3 RdRp) (Norwalk-like virus, UniProt Q8JXI4).
T1 construct: mature NS7 RdRp from ORF1 genome polyprotein, cDNA nt 3581-5113; N-terminal His6 tag (pET28b), E. coli ArcticExpress (DE3); 57 kDa by SDS-PAGE
The series can be described thus: RNA synthesis, dsRNA product after S1 nuclease, native PAGE with SYBR Green II. Type of series: biochemical.

Consider 31AS RNA, for which the binding signal (% complex remaining) in series [1] came to 47.3.

Turning to 100AS RNA, in series [1], the binding signal (% complex remaining) is 13.5.

The compound `C[C@@]1(O)[C@H](O)[C@@H](COP(=O)(O)OP(=O)(O)OP(=O)(O)O)O[C@H]1n1ccc(N)nc1=O` [2′CM-CTP, 2′-C-methylcytidine triphosphate] returned a 50% inhibitory concentration (IC50) in series [2] of 57 ± 20 µM.
